# Source: article PMC3412936
# Columns and labels:
# Assay in all cases: ITC
# [1] = target: WW1 domain (residues 16-50) of human WWOX (human) (UniProt Q9NZC7)
# [2] = target: WW1-WW2 tandem domains (residues 16-91) of human WWOX (human) (UniProt Q9NZC7)
# [3] = target: engineered WW1-WW2rw tandem domains of WWOX (human) (UniProt Q9NZC7)
# [4] = target: WW2 domain (residues 57-91) of human WWOX (human) (UniProt Q9NZC7)
# [5] = target: WW1_R25E mutant of the WW1 domain of WWOX (human) (UniProt Q9NZC7)
# [6] = target: WW1_W44Y mutant of the WW1 domain of WWOX (human) (UniProt Q9NZC7)
# [7] = target: engineered WW2_RW domain of WWOX (E66R/Y85W double-mutant of WW2 domain) (human) (UniProt Q9NZC7)
# [8] = target: WW2_Y85W mutant of the WW2 domain of WWOX (human) (UniProt Q9NZC7)
# [9] = target: WW2_E66R mutant of the WW2 domain of WWOX (human) (UniProt Q9NZC7)
# [10] = target: WW1_R25A mutant of the WW1 domain of WWOX (human) (UniProt Q9NZC7)
# Chain of WW1_R25A mutant of the WW1 domain of WWOX (human) (Q9NZC7 16-50 R25A): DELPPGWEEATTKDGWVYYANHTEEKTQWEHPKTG
# Chain of WW1-WW2 tandem domains (residues 16-91) of human WWOX (human) (Q9NZC7 16-91): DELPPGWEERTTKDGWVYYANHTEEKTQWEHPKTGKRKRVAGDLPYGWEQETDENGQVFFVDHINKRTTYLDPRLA
# Chain of WW1 domain (residues 16-50) of human WWOX (human) (Q9NZC7 16-50): as the sequence (Q9NZC7 16-50 R25A) above, with A10R counted along it
# Chain of engineered WW2_RW domain of WWOX (E66R/Y85W double-mutant of WW2 domain) (human) (Q9NZC7 57-91 E66R/Y85W): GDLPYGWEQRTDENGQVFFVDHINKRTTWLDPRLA
# Chain of engineered WW1-WW2rw tandem domains of WWOX (human) (Q9NZC7 16-91 E66R/Y85W): as the sequence (Q9NZC7 16-91) above, with E51R, Y70W counted along it
# Chain of WW1_R25E mutant of the WW1 domain of WWOX (human) (Q9NZC7 16-50 R25E): as the sequence (Q9NZC7 16-50 R25A) above, with A10E counted along it
# Chain of WW1_W44Y mutant of the WW1 domain of WWOX (human) (Q9NZC7 16-50 W44Y): as the sequence (Q9NZC7 16-50 R25A) above, with A10R, W29Y counted along it
# Chain of WW2_E66R mutant of the WW2 domain of WWOX (human) (Q9NZC7 57-91 E66R): as the sequence (Q9NZC7 57-91 E66R/Y85W) above, with W29Y counted along it
# Chain of WW2_Y85W mutant of the WW2 domain of WWOX (human) (Q9NZC7 57-91 Y85W): as the sequence (Q9NZC7 57-91 E66R/Y85W) above, with R10E counted along it
# Chain of WW2 domain (residues 57-91) of human WWOX (human) (Q9NZC7 57-91): as the sequence (Q9NZC7 57-91 E66R/Y85W) above, with R10E, W29Y counted along it
substance,measurement,setting,value
PY3_P-2A alanine mutant of the WBP2_PY3 peptide,Kd,[1],250 µM
same,dH,[1],-18 kcal/mol
PY3_Q-3A alanine mutant of the WBP2_PY3 peptide,Kd,[1],149 µM
same,dH,[1],-12.4 kcal/mol
PY3_Y+3A alanine mutant of the WBP2_PY3 peptide,Kd,[1],554 µM
same,dH,[1],-4.95 kcal/mol
PY3_Y+4A alanine mutant of the WBP2_PY3 peptide,Kd,[1],229 µM
same,dH,[1],-8.35 kcal/mol
WBP2_PY3 peptide (12-mer spanning the PY3 PPXY motif of human WBP2),Kd,[2],49 µM
same,dH,[2],-8.46 kcal/mol
same,stoichiometry N,[2],1.05
same,Kd,[3],59 µM
same,dH,[3],-8.02 kcal/mol
same,Kd,[4],> 1 mM
same,Kd,[5],> 1 mM
same,Kd,[6],> 1 mM
same,Kd,[7],91 µM
same,dH,[7],-5.2 kcal/mol
same,Kd,[1],122 µM
same,dH,[1],-12.6 kcal/mol
same,Kd,[8],> 1 mM
same,Kd,[9],> 1 mM
same,Kd,[10],> 1 mM
